The labels stand for the following.
B1: NFE2L1 (parent)
chain: TLDGYGIHPKSIDLDNYFTARRLL
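Also: lentivirally expressed fusions sorted by FACS into six bins by GFP to DsRed ratio, PSI derived from sequencing read proportions per bin multiplied by bin number.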

The data set covers variants of B1. The experiment in a line: protein stability index of a GFP-peptide fusion (GPS, HEK-293T) (PSI 1-6); higher = more stable. The note with it: c terminus: a fixed tail appended.
Consider TLDGYGIHPKSIDLLNYFTARRLL, for which the protein stability index was determined as 1.57.
The same measure for TLDGYGIHPKSIDLCNYFTARRLL: 1.48; for TLDGYGIHPKSIDLQNYFTARRLL: 1.84; for TLDGYGIHPKSIDLENYFTARRLL: 1.96.
Then TLDGYGIHPKSIDLGNYFTARRLL, with 2.3; and TLDGYGIHPKSIDLVNYFTARRLL, with 1.72.
With TLDGYGIHPKSIDLKNYFTARRLL, the protein stability index is 1.72.
Take TLDGYGIHPKSIDLWNYFTARRLL: the protein stability index was 2.21.
As for TLDGYGIHPKSIDLINYFTARRLL, the protein stability index came out at 2.47.
As to TLDGYGIHPKSIDLYNYFTARRLL, the protein stability index turned out to be 1.46.
The same measure for TLDGYGIHPKSIDLPNYFTARRLL: 2.06.
As for TLDGYGIHPKSIDLSNYFTARRLL, the protein stability index is 2.44.
Then TLDGYGIHPKSIDLTNYFTARRLL, with 1.77; and TLDGYGIHPKSIDLFNYFTARRLL, with 2.6.
The same measure for TLDGYGIHPKSIDLRNYFTARRLL: 2.74; for TLDGYGIHPKSIDLNNYFTARRLL: 2.2.
For the variant TLDGYGIHPKSIDLANYFTARRLL, the protein stability index was 1.9.
TLDGYGIHPKSIDLMNYFTARRLL: the protein stability index was found to be 1.84.
Take TLDGYGIHPKSIDLHNYFTARRLL: the protein stability index worked out at 1.89.
The same measure for TLDGYGIHPKSIDLDNYFTFRRLL: 1.8.
Consider TLDGYGIHPKSIDLDNYFTPRRLL, for which the protein stability index came out at 1.84.
For the variant TLDGYGIHPKSIDLDNYFTHRRLL, the protein stability index amounted to 1.66.
The same measure for TLDGYGIHPKSIDLDNYFTSRRLL: 2.03.
The same measure for TLDGYGIHPKSIDLDNYFTQRRLL: 2.23; for TLDGYGIHPKSIDLDNYFTTRRLL: 1.49; for TLDGYGIHPKSIDLDNYFTGRRLL: 1.71.
Then TLDGYGIHPKSIDLDNYFTKRRLL, with 2.34; and TLDGYGIHPKSIDLDNYFTLRRLL, with 1.53.
With TLDGYGIHPKSIDLDNYFTERRLL, the protein stability index turned out to be 1.87.
Turning to TLDGYGIHPKSIDLDNYFTDRRLL, the protein stability index was 2.76.
On to TLDGYGIHPKSIDLDNYFTRRRLL, for which the protein stability index came to 2.17.
Regarding TLDGYGIHPKSIDLDNYFTWRRLL, the protein stability index is 2.04.
Regarding TLDGYGIHPKSIDLDNYFTYRRLL, the protein stability index came out at 1.92.
As for TLDGYGIHPKSIDLDNYFTNRRLL, the protein stability index worked out at 1.49.
With TLDGYGIHPKSIDLDNYFTCRRLL, the protein stability index is 1.6.
The same measure for TLDGYGIHPKSIDLDNYFTMRRLL: 1.96.
In the case of TLDGYGIHPKSIDLDNYFTVRRLL, the protein stability index worked out at 1.35.
Turning to TLDGYGIHPKSIDLDNYFTIRRLL, the protein stability index was determined as 1.77.
TLDGYGIHPKSIDLDNYVTARRLL: the protein stability index turned out to be 3.05.
The same measure for TLDGYGIHPKSIDLDNYWTARRLL: 1.7; for TLDGYGIHPKSIDLDNYKTARRLL: 2.88.
As for TLDGYGIHPKSIDLDNYNTARRLL, the protein stability index was 3.
As for TLDGYGIHPKSIDLDNYHTARRLL, the protein stability index was 2.34.
The same measure for TLDGYGIHPKSIDLDNYETARRLL: 2.71; for TLDGYGIHPKSIDLDNYSTARRLL: 2.16; for TLDGYGIHPKSIDLDNYLTARRLL: 1.89.
On to TLDGYGIHPKSIDLDNYITARRLL, for which the protein stability index came to 1.92.
With TLDGYGIHPKSIDLDNYPTARRLL, the protein stability index amounted to 2.89.
The same measure for TLDGYGIHPKSIDLDNYGTARRLL: 2.67.
Regarding TLDGYGIHPKSIDLDNYMTARRLL, the protein stability index turned out to be 2.08.
On to TLDGYGIHPKSIDLDNYYTARRLL, for which the protein stability index worked out at 1.99.
Turning to TLDGYGIHPKSIDLDNYRTARRLL, the protein stability index was found to be 2.31.
Then TLDGYGIHPKSIDLDNYTTARRLL, with 2.25; and TLDGYGIHPKSIDLDNYDTARRLL, with 3.26; and TLDGYGIHPKSIDLDNYQTARRLL, with 2.69.
Then TLDGYGIHPKSIDLDNYATARRLL, with 2.93; and TLDGYGIHPKSIDLDNYCTARRLL, with 2.03; and TLDGYGIHPKSIDLDNYFTARRAL, with 2.62.
Then TLDGYGIHPKSIDLDNYFTARRCL, with 2.41; and TLDGYGIHPKSIDLDNYFTARRGL, with 2.42; and TLDGYGIHPKSIDLDNYFTARRKL, with 3.26.
TLDGYGIHPKSIDLDNYFTARRHL: the protein stability index was 2.18.
In the case of TLDGYGIHPKSIDLDNYFTARRIL, the protein stability index worked out at 1.64.
Regarding TLDGYGIHPKSIDLDNYFTARRDL, the protein stability index worked out at 2.4.
As to TLDGYGIHPKSIDLDNYFTARRFL, the protein stability index was 1.93.
Then TLDGYGIHPKSIDLDNYFTARREL, with 2.6; and TLDGYGIHPKSIDLDNYFMARRLL, with 1.67.
TLDGYGIHPKSIDLDNYFLARRLL: the protein stability index was 1.26.
The same measure for TLDGYGIHPKSIDLDNYFGARRLL: 1.89; for TLDGYGIHPKSIDLDNYFQARRLL: 1.77; for TLDGYGIHPKSIDLDNYFWARRLL: 2.08.
Then TLDGYGIHPKSIDLDNYFEARRLL, with 2.09.
Regarding TLDGYGIHPKSIDLDNYFSARRLL, the protein stability index came out at 1.9.
Then TLDGYGIHPKSIDLDNYFAARRLL, with 2.01.
As for TLDGYGIHPKSIDLDNYFDARRLL, the protein stability index came to 2.07.
The same measure for TLDGYGIHPKSIDLDNYFKARRLL: 2.46; for TLDGYGIHPKSIDLDNYFRARRLL: 2.81.
On to TLDGYGIHPKSIDLDNYFIARRLL, for which the protein stability index stood at 2.03.
TLDGYGIHPKSIDLDNYFHARRLL: the protein stability index turned out to be 2.32.
As for TLDGYGIHPKSIDLDNYFCARRLL, the protein stability index was 1.69.
As to TLDGYGIHPKSIDLDNYFPARRLL, the protein stability index is 2.
Then TLDGYGIHPKSIDLDNYFFARRLL, with 1.71.
With TLDGYGIHPKSIDLDNYFNARRLL, the protein stability index is 2.09.
Then TLDGYGIHPKSIDLDNYFVARRLL, with 1.66; and TLDGYGIHPKSIDLDNYFYARRLL, with 1.8.
The same measure for TLDGYGIHPKSIDLDNYFTARSLL: 1.69; for TLDGYGIHPKSIDLDNYFTARGLL: 2.53; for TLDGYGIHPKSIDLDNYFTARILL: 3.54.
The same measure for TLDGYGIHPKSIDLDNYFTARTLL: 2.25; for TLDGYGIHPKSIDLDNYFTARCLL: 2.16.
Take TLDGYGIHPKSIDLDNYFTARALL: the protein stability index was 1.49.
On to TLDGYGIHPKSIDLDNYFTARWLL, for which the protein stability index is 2.21.
Then TLDGYGIHPKSIDLDNYFTARFLL, with 1.6.
Then TLDGYGIHPKSIDLDNYFTARKLL, with 2.2.
